Test results taken from the supplement of paper PMC11908140.

B1: library; numbered along this chain (parent)
chain: MRKPRAAVGSGHRKQAASQEGRQKHAKNNSQAKPSACDGLARQPEEVVLQASVSSYHLFRDVAEVTAFRGSLLSWYDQEKRDLPWRRRAEDEMDLDRRAYAVWVSEVMLQQTQVATVINYYTGWMQKWPTLQDLASASLEEVNQLWAGLGYYSRGRRLQEGARKVVEELGGHMPRTAETLQQLLPGVGRYTAGAIASIAFGQATGVVDGNVARVLCRVRAIGADPSSTLVSQQLWGLAQQLVDPARPGDFNQAAMELGATVCTPQRPLCSQCPVESLCRARQRVEQEQLLASGSLSGSPDVEECAPNTGQCHLCLPPSEPWDQTLGVVNFPRKASRKPPREESSATCVLEQPGALGAQILLVQRPNSGLLAGLWEFPSVTWEPSEQLQRKALLQELQRWAGPLPATHLRHLGEVVHTFSHIKLTYQVYGLALEGQTPVTTVPPGARWLTQEEFHTAAVSTAMKKVFRVYQGQQPGTCMGSKRSQVSSPCSRKKPRMGQQVLDNFFRSHISTDAHSLNSAAQ

Variants of: B1
Test: 8OG:A repair function score (normalized; synonymous = 0, nonsense = -1) (normalized log-likelihood score); higher = more repair activity (WT-like)
Details: with 8OG:A DNA repair reporter (GFP) in HEK-293 MUTYH KO cells
How it was run: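 Lentiviral MUTYH cDNA NNN codon-scan libraries in HEK-293 MUTYH knockout cells (10 pg/ml doxycycline) were co-transfected with an 8OG:A GFP repair reporter plus mCherry. At 72 h, viable mCherry+ cells were sorted into GFP+ (repair) and GFP− bins, three replicates per tile, then tile amplicons were sequenced. Per-tile Rosace fitness scores became a normalized repair function score anchored on synonymous and nonsense distributions. Synonymous medians were set to 0 and nonsense to -1; variants under 300 counts per million at the start were removed.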

8OG:A repair function score, by site and new letter:
R409: C -0.178, A -0.0367, N -0.0513, P -0.541, L 0.0499, D -0.0632, W 0.0733, I -0.183, H -0.288, V 0.0575, T 0.31, F -0.167, M -0.242, G -0.342, Y -0.0918, Q -0.332, E 0.0558, K -0.145, S 0.0978
H407: W -0.172, L -0.0178, D 0.0493, F -0.245, I 0.0779, S -0.109, E -0.226, Y -0.269, Q 0.0383, G -0.0586, P -0.0456, C -0.123, K -0.104, A 0.245, R -0.0136, T -0.107, V 0.0608, M -0.456, N 0.205
P404: A -0.142, D -0.155, Q 0.15, C -0.224, S -0.587, K 0.298, T -0.55, N 0.336, F -0.272, I 0.118, E 0.341, G -0.187, W -0.26, L 0.0132, Y -0.119, M 0.184, H 0.138, R 0.163, V -0.000894
H410: K -0.0723, I -0.161, E -0.292, C -0.293, D -0.324, A -0.29, G -0.298, F 0.096
A405: T -0.128, S 0.0326, D -0.0995, L -0.177, Y -0.204, H -0.489, C 0.144, F 0.0223, P 0.125, W -0.606, Q -0.0438, E 0.199, R 0.00307, K 0.0168, I 0.0761, N -0.161, V -0.00982, G -0.0383, M -0.161
T406: Y -0.265, Q -0.294, M -0.199, L -0.249, P -0.287, N 0.0152, C 0.13, R 0.0241, W -0.0828, F -0.539, D 0.483, V 0.013, S -0.184, G -0.00238, E -0.17, A 0.32, H 0.516, K 0.103, I 0.313
L408: H -1.11, W -0.833, S -0.483, G -0.81, N -0.893, C 0.18, Y -0.205, V -0.347, A -0.717, E -1.61, D -0.946, R -0.839, M -0.0275, F -0.529, I 0.246, K -0.858, T -0.417, Q -0.293, P -0.461
G401: Q -0.521, R -0.272, P 0.0452, N 0.111, S -0.0552, Y -0.393, V -0.142, W -0.421, T -0.428
P402: Q -0.236, W -0.534, D 0.516, F -0.215, S -0.138, K -0.00401, N -0.282, C -0.0435, Y -0.122, I -0.0565, L -0.318, R -0.0808, G -0.274, A -0.0823, V -0.0663, E -0.208, T -0.26, M 0.138
L403: F 0.0495, C 0.158, D -0.686, S -0.428, I 0.0162, M -0.0231, Y -0.513, R -0.392, V 0.058, E -0.596, N -0.0773, T 0.0396, Q 0.0753, G -0.509, K -0.295, P -0.0649, W -0.318, A -0.335
